The text below walks through data of patent JP2012034697A.

The experiment has as its target Aβ(βアミロイドペプチド) (UniProt P05067). As to the kind of experiment: BIAcore.
Sequence of UniProt P05067 (P05067 672-713 limits assumed): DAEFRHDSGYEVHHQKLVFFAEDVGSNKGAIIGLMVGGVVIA

Substance マウスモノクローナル抗体3D6 (antibody) had a Kd of 0.88 nM.
